Laboratory results from US20220387578A1 (VANDERBILT UNIVERSITY, published 2022).

B1: rFluA-20 heavy chain mutant Y34A (antibody, V domains shown)
VH: QVQLQESGPGLVKPSETLSLTCSVSGVSVTSDIAYWTWIRQPPGKGLEWIGYIFYNGDTNYNPSLKSRVTMSIDTSKNEFSLRLTSVTAADTAVYFCARGTEDLGYCSSGSCPNHWGQGTLVTVSS
VL: DIQMTQSPSSLSASIGDRVTITCRPSQNIRSFLNWFQHKPGKAPKLLIYAASNLQSGVPSRFSGSGSGTEFTLTIRSLQPEDFATYYCQQSYNTPPTFGQGTKVEIK
B2: rFluA-20 heavy chain mutant T96A (antibody, V domains shown)
VH: QVQLQESGPGLVKPSETLSLTCSVSGVSVTSDIYYWTWIRQPPGKGLEWIGYIFYNGDTNYNPSLKSRVTMSIDTSKNEFSLRLTSVTAADTAVYFCARGAEDLGYCSSGSCPNHWGQGTLVTVSS
VL: DIQMTQSPSSLSASIGDRVTITCRPSQNIRSFLNWFQHKPGKAPKLLIYAASNLQSGVPSRFSGSGSGTEFTLTIRSLQPEDFATYYCQQSYNTPPTFGQGTKVEIK
B3: rFluA-20 light chain mutant N53A (antibody, V domains shown)
VH: QVQLQESGPGLVKPSETLSLTCSVSGVSVTSDIYYWTWIRQPPGKGLEWIGYIFYNGDTNYNPSLKSRVTMSIDTSKNEFSLRLTSVTAADTAVYFCARGTEDLGYCSSGSCPNHWGQGTLVTVSS
VL: DIQMTQSPSSLSASIGDRVTITCRPSQNIRSFLNWFQHKPGKAPKLLIYAASALQSGVPSRFSGSGSGTEFTLTIRSLQPEDFATYYCQQSYNTPPTFGQGTKVEIK
B4: rFluA-20 heavy chain mutant E97A (antibody, V domains shown)
VH: QVQLQESGPGLVKPSETLSLTCSVSGVSVTSDIYYWTWIRQPPGKGLEWIGYIFYNGDTNYNPSLKSRVTMSIDTSKNEFSLRLTSVTAADTAVYFCARGTADLGYCSSGSCPNHWGQGTLVTVSS
VL: DIQMTQSPSSLSASIGDRVTITCRPSQNIRSFLNWFQHKPGKAPKLLIYAASNLQSGVPSRFSGSGSGTEFTLTIRSLQPEDFATYYCQQSYNTPPTFGQGTKVEIK
B5: rFluA-20 heavy chain mutant Y100aA (antibody, V domains shown)
VH: QVQLQESGPGLVKPSETLSLTCSVSGVSVTSDIYYWTWIRQPPGKGLEWIGYIFYNGDTNYNPSLKSRVTMSIDTSKNEFSLRLTSVTAADTAVYFCARGTEDLGACSSGSCPNHWGQGTLVTVSS
VL: DIQMTQSPSSLSASIGDRVTITCRPSQNIRSFLNWFQHKPGKAPKLLIYAASNLQSGVPSRFSGSGSGTEFTLTIRSLQPEDFATYYCQQSYNTPPTFGQGTKVEIK

These binders were tested against H3 HA A/Hong Kong/1/1968 (H3N2), recombinant soluble trimer (influenza A virus, UniProt Q91MA7 17-530).

B1 and B2 are within 1.5-fold of each other in EC50: 0.07 µg/mL for the first, 0.1 µg/mL for the second.

B3 and B4 are within 1.5-fold of each other in EC50: 0.06 µg/mL for the first, 0.07 µg/mL for the second.

Binder B5 has an EC50 of 0.07 µg/mL.
